Assay results reported in the supplement of paper PMC9233669.
Fewer inactive variants are shown than the library holds.

How the values were obtained:
biotinyl-Val-oxazolone = experiment: self-aminoacylation, catalytic enhancement (BVO) (fold over background); higher = more active; k-Seq, kA / k0A0; sequences stand for … in GGGAAUGGAUCCACAUCUACGAAUUC…UUCACUGCAGACUUGACGAAGCUG
Summary of the method: (§1)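 The uncatalyzed rate is the low-activity peak of a bimodal Gaussian fit, and catalytic enhancement is median kA divided by it. The kA values came from pseudo-first-order fits, with 1000 bootstraps, of per-sequence fraction reacted measured by streptavidin capture, triplicate qPCR and Illumina sequencing. Mutagenized RNA pools with a 21-nt variable region (0.43 μM) were reacted with each biotinyl-aminoacyl-oxazolone at 2–1250 μM in 50 μL HEPES/NaCl/KCl/MgCl2/CaCl2 buffer with 5% acetonitrile, pH 6.9–7.0, for 90 minutes at room temperature.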

biotinyl-Phe-oxazolone = experiment: self-aminoacylation, catalytic enhancement (BFO) (fold over background); higher = more active; k-Seq, kA / k0A0; sequences stand for … in GGGAAUGGAUCCACAUCUACGAAUUC…UUCACUGCAGACUUGACGAAGCUG
Summary of the method: as §1

biotinyl-Met-oxazolone = experiment: self-aminoacylation, catalytic enhancement (BMO) (fold over background); higher = more active; k-Seq, kA / k0A0; sequences stand for … in GGGAAUGGAUCCACAUCUACGAAUUC…UUCACUGCAGACUUGACGAAGCUG
Summary of the method: as §1

biotinyl-Leu-oxazolone = experiment: self-aminoacylation, catalytic enhancement (BLO) (fold over background); higher = more active; k-Seq, kA / k0A0; sequences stand for … in GGGAAUGGAUCCACAUCUACGAAUUC…UUCACUGCAGACUUGACGAAGCUG
Summary of the method: as §1

biotinyl-Trp-oxazolone = experiment: self-aminoacylation, catalytic enhancement (BWO) (fold over background); higher = more active; k-Seq, kA / k0A0; sequences stand for … in GGGAAUGGAUCCACAUCUACGAAUUC…UUCACUGCAGACUUGACGAAGCUG
Summary of the method: as §1

biotinyl-Ile-oxazolone = experiment: self-aminoacylation, catalytic enhancement (BIO) (fold over background); higher = more active; k-Seq, kA / k0A0; sequences stand for … in GGGAAUGGAUCCACAUCUACGAAUUC…UUCACUGCAGACUUGACGAAGCUG
Summary of the method: as §1

| Sequence | self-aminoacylation (biotinyl-Val-oxazolone) | self-aminoacylation (biotinyl-Phe-oxazolone) | self-aminoacylation (biotinyl-Met-oxazolone) | self-aminoacylation (biotinyl-Leu-oxazolone) | self-aminoacylation (biotinyl-Trp-oxazolone) | self-aminoacylation (biotinyl-Ile-oxazolone) |
| --- | --- | --- | --- | --- | --- | --- |
| AACUGUGCUAAUAGUCGCAAG [Fam3.1 aminoacylation ribozyme variant] | 1.61 | 2.41 | 1.81 | 2.35 | 2.34 | 2.14 |
| AUUACACUGGUCAUCGAGUGU [Fam2.1 aminoacylation ribozyme variant] | 1.66 | 2.05 | 2.61 | 2.47 | 3.07 | 1.73 |
| CCACACUCCAAGCAAUCGGCC [Fam1B.1 aminoacylation ribozyme variant] | 2.36 | 2.68 | 1.36 | 1.28 | 2.59 | 1.63 |
| AUUCACCUAGGUCAUUGUGUG [Fam2.2 aminoacylation ribozyme variant] | 0.835 | 0.805 | 0.898 | 1.03 | 0.463 | 0.871 |
| CCACCCUUCAAGCAAGCGGUC [Fam1B.1 aminoacylation ribozyme variant] | 1.4 | 0.522 | 1.25 | 1.36 | 0.963 | 1.01 |
| CCACACUUCGAGCAAUCGGUA [Fam1B.1 aminoacylation ribozyme variant] | 1.06 | 0.573 | 0.716 | 0.849 | 1 | 0.715 |
| AUUCACCUAGGGCGUCGGGUG [Fam2.2 aminoacylation ribozyme variant] | 1.84 | 9.76 | 2.21 | 2.92 | 1.83 | 1.73 |
| AUUCAGCUAGGUCAUCGGGUG [Fam2.2 aminoacylation ribozyme variant] | 4.2 | 35 | 4.92 | 5.83 | 5.34 | 3.7 |
| AUUCACCUAAGGCAUCGGGUG [Fam2.2 aminoacylation ribozyme variant] | 3.31 | 26.5 | 3.3 | 4.9 | 3.67 | 2.69 |
| GUUACCCUGGUCAGCGAGUGA [Fam2.1 aminoacylation ribozyme variant] | 4.05 | 42.9 | 6.72 | 6.76 | 7.95 | 4.8 |
| AUAACCCUGGACAUCGAGUGA [Fam2.1 aminoacylation ribozyme variant] | 2.47 | 28.8 | 6.69 | 6.63 | 5.65 | 3.02 |
| AAGUUUGCUAACAGUCGCACG [Fam3.1 aminoacylation ribozyme variant] | 1.18 | 1.65 | 1.19 | 0.745 | 0.973 | 0.921 |
| ACGUUUGCUAAUAGUCACAAG [Fam3.1 aminoacylation ribozyme variant] | 1.39 | 3.82 | 0.95 | 1.15 | 1.82 | 1.34 |
| ACUCACCGAGGUCAUCGGGUG [Fam2.2 aminoacylation ribozyme variant] | 5.07 | 41.6 | 6.05 | 7.63 | 8.16 | 4.34 |
| AUUCACAUAGAUCAUCGGGUG [Fam2.2 aminoacylation ribozyme variant] | 2.8 | 35.2 | 4.43 | 5.04 | 3.84 | 2.93 |
| CUACUUCAAAAAAUCGGCCUG [Fam1A.1 aminoacylation ribozyme variant] | 1.56 | 15.3 | 1.73 | 1.7 | 13.1 | 1.9 |
| AUAACCCUGGUCAUCGAAUGA [Fam2.1 aminoacylation ribozyme variant] | 0.954 | 0.579 | 1.07 | 0.798 | 0.785 | 0.882 |
| CUACUUGAAACAAUCGGCCUG [Fam1A.1 aminoacylation ribozyme variant] | 1.68 | 0.788 | 1.96 | 1.45 | 1.38 | 1.84 |
| AUUCACCUAGCUCUUCGGGUG [Fam2.2 aminoacylation ribozyme variant] | 2.42 | 10.9 | 2.25 | 2.62 | 2.74 | 2.08 |
| CUACUUUAAACAAUCGGUUUG [Fam1A.1 aminoacylation ribozyme variant] | 0.8 | 0.922 | 0.786 | 0.776 | 0.724 | 0.824 |
| AUUCACCAAUGUCAUCGGGUG [Fam2.2 aminoacylation ribozyme variant] | 5.57 | 75.3 | 9.72 | 12.6 | 8.56 | 5.59 |
| CCCCAGUUCAAGCAAUCGGUC [Fam1B.1 aminoacylation ribozyme variant] | 2.65 | 7.95 | 2.77 | 3.86 | 7.44 | 2.48 |
| AUUACCCUGUUCAGCGAGUGA [Fam2.1 aminoacylation ribozyme variant] | 2.96 | 14.4 | 5.05 | 4.4 | 6.39 | 2.51 |
| AUGACCAUGGUCAUCGAGUGA [Fam2.1 aminoacylation ribozyme variant] | 4.28 | 22.1 | 7.94 | 8.09 | 9.59 | 4.29 |
| CGACUUCAAACAAUCGGGCUG [Fam1A.1 aminoacylation ribozyme variant] | 2.73 | 10.4 | 2.05 | 2.34 | 12.7 | 2.45 |
| AAGAUUGCUACUAGUCGCAAG [Fam3.1 aminoacylation ribozyme variant] | 1.32 | 2.44 | 1.27 | 1.73 | 1.98 | 1.55 |

| Sequence | self-aminoacylation (biotinyl-Val-oxazolone) | self-aminoacylation (biotinyl-Phe-oxazolone) | self-aminoacylation (biotinyl-Met-oxazolone) | self-aminoacylation (biotinyl-Leu-oxazolone) | self-aminoacylation (biotinyl-Trp-oxazolone) | self-aminoacylation (biotinyl-Ile-oxazolone) |
| --- | --- | --- | --- | --- | --- | --- |
| AAGUUUGCUAAUCGUCGCAUG [Fam3.1 aminoacylation ribozyme variant] | 0.923 | 0.667 | 0.922 | 0.957 | 0.804 | 1.03 |
| AAGUUUGAUCAUAGUCGCAAG [Fam3.1 aminoacylation ribozyme variant] | 1.76 | 2.45 | 1.55 | 1.62 | 1.2 | 1.69 |
| AUUUACCUAGGUCAUCCGGUG [Fam2.2 aminoacylation ribozyme variant] | 3.81 | 41.8 | 4.7 | 7.4 | 4.6 | 3.68 |
| AUCCACCUAGGUCAUCGGGAG [Fam2.2 aminoacylation ribozyme variant] | 2.17 | 1.03 | 1.65 | 1.68 | 2.19 | 1.88 |
| CCACACUUCAAGGAAUCGGUG [Fam1B.1 aminoacylation ribozyme variant] | 4.61 | 52.1 | 7.21 | 10.5 | 6.57 | 4.9 |
| CUACUUCAAACAAUCGACCUG [Fam1A.1 aminoacylation ribozyme variant] | 0.636 | 1.6 | 0.545 | 0.45 | 0.661 | 0.608 |
| CUACUUCAAACGACCGGUCUG [Fam1A.1 aminoacylation ribozyme variant] | 0.74 | 0.832 | 0.698 | 0.621 | 0.229 | 0.601 |
| CUACUUCAAACGAUCGGUCUA [Fam1A.1 aminoacylation ribozyme variant] | 0.731 | 0.678 | 0.744 | 0.615 | 0.594 | 0.757 |
| AUUACCCUGGUCUUGGAGUGA [Fam2.1 aminoacylation ribozyme variant] | 1.98 | 5.63 | 2.24 | 3.23 | 4.3 | 2.27 |
| AUUCACCUGGUUCAUCGGGUG [Fam2.2 aminoacylation ribozyme variant] | 3.1 | 15.2 | 3.08 | 3.19 | 3.62 | 2.42 |
| AUUACCCCGGUCAUAGAGUGA [Fam2.1 aminoacylation ribozyme variant] | 3.96 | 43.1 | 7.91 | 8.34 | 8.65 | 4.47 |
| AAGUUUGAUACUAGUCGCAAG [Fam3.1 aminoacylation ribozyme variant] | 1.25 | 1.36 | 0.811 | 1.37 | 0.887 | 1.5 |
| ACUUCCCUGGUCAUCGAGUGA [Fam2.1 aminoacylation ribozyme variant] | 5.69 | 41.8 | 9.66 | 9.49 | 12.1 | 4.96 |
| AGGUUUGCUAAUAAUCGCAAG [Fam3.1 aminoacylation ribozyme variant] | 0.949 | 1.91 | 0.753 | 0.822 | 0.725 | 0.899 |
| CUACUUCAAAGAAUCCGUCUG [Fam1A.1 aminoacylation ribozyme variant] | 0.915 | 0.744 | 0.942 | 1.07 | 0.738 | 1.06 |
| AAGUUUGGUAAUAGUCGCAAU [Fam3.1 aminoacylation ribozyme variant] | 1.62 | 3.13 | 1.65 | 1.8 | 2.14 | 2.02 |
| AUUACCCUGGUCAUCGAAUUA [Fam2.1 aminoacylation ribozyme variant] | 1.18 | 0.751 | 1.5 | 0.955 | 0.504 | 1.26 |
| AUUAUCCUGGUCAGCGAGUGA [Fam2.1 aminoacylation ribozyme variant] | 3.13 | 17.7 | 5.26 | 5.28 | 6.53 | 3.04 |
| AUUCACCUAGGUCGUCCGGUG [Fam2.2 aminoacylation ribozyme variant] | 2.35 | 14.4 | 3.34 | 3.89 | 2.39 | 2.52 |
| ACGUUUACUAAUAGUCGCAAG [Fam3.1 aminoacylation ribozyme variant] | 1.53 | 2.57 | 1.35 | 1.8 | 1.41 | 1.56 |
| AGACACCUAGGUCAUCGGGUG [Fam2.2 aminoacylation ribozyme variant] | 2.32 | 20.6 | 3.07 | 3.29 | 4.31 | 3.01 |
| AUUACCCUCGUCAUCGGGUGA [Fam2.1 aminoacylation ribozyme variant] | 2.77 | 24.1 | 3.84 | 4.5 | 3.81 | 2.39 |
| CCACACUUGAGGCAAUCGGUC [Fam1B.1 aminoacylation ribozyme variant] | 1.81 | 1.28 | 1.48 | 1.6 | 1.86 | 1.63 |
| AUUCACCUAGGUCAUUGGGCG [Fam2.2 aminoacylation ribozyme variant] | 2.66 | 10.6 | 2.49 | 3.36 | 3.16 | 2.58 |
| AUUACACUGGUCGUCGAGUGA [Fam2.1 aminoacylation ribozyme variant] | 1.38 | 2.53 | 1.14 | 1.44 | 0.958 | 1.25 |
